Experiment: yeast display, Sf9 membrane polyspecificity reagent, FACS + sequencing; frameworks hold sequencing errors
Outline: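 Genes from sorted yeast were amplified by colony PCR, read by MiSeq 2 × 250 sequencing and filtered on CDR length. These cells carried a synthetic nanobody library in Saccharomyces cerevisiae BJ5465 and were sorted by FACS into low and high (top ~1%) gates on anti-HA and streptavidin fluorescence. Polyreactivity is labelled according to the gate of origin.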

| Sequence | polyreactivity (PSR sort gate) |
| --- | --- |
| QVQLVESGGGLVQAGGSLRLSCAASGGTFSPYYMGWYRQAPGKEREFVASITGSGGSTYYADSVKGRFTISRGNAKNTVYVQMNSLKPEDTAVYYCAAQCYWTYWPYLLRLYDYWGQGTQVTVSS | low polyreactivity |
| QVQLVESGGGLVQAGGSLRLSCAASGSTFLYYAMGWYRQAPGKERELVASITRRGGRTYYADSVKGRFTISRDNAKNTVYLQMNSLKPVDTAVYYCNAVYGRQYRGYNYKFFYWGQGTQVTVSS | high polyreactivity |
| QVQLVESVGGLVQAGGSLRLSCAASGRTFSTKAMGWYRQAPGKERELVAVIPSSGVRTYYADSVKGRFTISRDNAKNTVYLQKNSLKPEDTAVYYCAKPYGYRLDYWGQGTQVTVSS | high polyreactivity |
| QVQLVESGGGLVQAGGSLRVSCAASGIIFYGYAMGWYRQAPGKEMELVAVITSGGSTNYADSVKGRFTISRDNAKNTVYLQMNSLKPEDTAVYYCAAKYHYFGFRYDYWGQGTQVTVSS | high polyreactivity |
| QVQHVESGGGLVQAGGRLRLTCPASGSTVGYYAMGWYRQAPGKEREFVATITFGGSTHYADSVKGRFTISRDNAKYTVYLQMNSLKPEDTAFYYCAKRYYTNRHSRAFGYWGQGTQVTVSS | high polyreactivity |
| QVQLVESGGGLVQAGGSLRLSCAASGSTFWGYTMGWYRPAPGKERELVAAITGSGGSTNYADSVKGRFTISRDNAKNTVYLQMNSLKPEDTAVYYCATQGITPSNSYDYWGQGTQVTVSS | low polyreactivity |
| QVQLVESGGGLVQAGGSLRLSCAASGSTFPYNAMGWYRQAPGKERELVADISGDSGSTYYADSVKGRFTISRDNAKNTVYLQMNSLKPEDTAVYYCAGEGVHYAGDYGTGYDYWGQGTQVTVSS | low polyreactivity |
| QVQLEESGGGLVQAGGSLRLSCAASGSIFYQYDMGWYRQAPGKERELVAAITQRGGRTYYADSVKGRFTISRDNAKNTVDLKMNSLKPELTAVYYCAADNDSYWGYVYWGQGTQVTVSS | high polyreactivity |
| QVQLVESGGGLVQAGGSLRLSCAASGRTFPGNDMGWYRQAPGKERELVAAISSDDSTYYADSVKGRFTISRDNAKNTVYLQMNSLKPEDTAVYYCNAEYYEGYIGVPGSYWPYEYWGQGTQVTVSS | low polyreactivity |
| QVQLVESGGGLVQAGGSLRISCAPSGSTFYKYTMGWYRQAPGKERELVAAISGSGTTTYYADSVKGRFTISRDNAKNTVYLRMNSLKPEDTAVYYCNTARGYDYGGLDYWGQGSQVTVSS | high polyreactivity |
| QVQLVESGGGLVQAGGSLRLSCAASGSIFGANAMGWYRQAPAKEWELVAAITRGGRTNYADSVKGRFTISRDNAKISVYLQMNSLKPEDTAVYYCNAAWGTGRWAGYISGGDWGQGTHVTVSS | high polyreactivity |
| QDQLVESGGGLVQAGGSLRLSCAASGRILGSNTMGWDRQAPGKERELVAAITSAGNTNYADSVKGRFTISRDNAKNTVYLQMNSLKPEDTAVYYCNVRGQRLYYRVRRLYDYWGQGTQVTVSS | high polyreactivity |
| QVQLVESGGGLVQAGGSLRLSCAASGSTFQQYGMGWYRQAPGKERELVAAITFSDGNTYYADSVKGRFTISRDNAKNTVYLQMNSLKREDTAVYYCNAGYSYGVSYAEGGYWGQGTQVTVSS | low polyreactivity |
| QVQLVESGGGLGQAGGSLRLSCAASGRTFRLYAMGCYRQAPGKERELVASITSTGRTYYADSVKGRFTISRDNAKNTVYLQMNSLKPEDTAVYYCNAVALSNCEYDYWGQGTQVTVSS | high polyreactivity |
| QVQLVESGGGLVQAGGSLRLSCAASGLTFYPYAMGWYRQAPGKERELVAAINWSGTTTYYADSVKGRFTISRDNAKNTVYLQMNSLKPEDTAVYYCAAHYTTFIPSPDGDYLGQGTQVTVSS | low polyreactivity |
| QVQLVESGGGLVQAGGSLRLSCAASGFTIRSYVMGWYRQAPGKERELVAAIRRSGGSTYYADSVKGRFTNSRDNAKNTVYLQMNSLKPEDTAVYYCNAPHHRYDWGQGTQVTVSS | high polyreactivity |
| QVQLVESGGGLVQAGGSLRLTCAASGSTFNRYAMGWYRQAPGKERELVAAITSTGGTNYADSVKGRFTISLDNAKNTVYLQMNSLKPEDTAFYYCAKRWLRWRSNYWGQGTQVTVSS | high polyreactivity |
| QVQLVESGGALVQAGGSLRLSCAASGRTLGGYAMGWYRQAPGKERELVAAITRRGGTTYYADSVKGRFTISRDNAKNTVYLQMNSLKPEDTAVYYCAKYTVQYAISHYDYWGQGTQVTVSS | high polyreactivity |
| QVQLVESGGGLVQAGGSLRLSCAASGRPFHRNAMGWYRPAPGKERELVAAITGDGRTNYADSVKGRFTLSRDNAKNTVYLQMNSLKPEDTAFYYCAAEAVWFVGQAFDISDSTTYGFWGQGTQVTVSS | low polyreactivity |
| QVQLVESGGGLVQAGGSLRLSCAASGRTFRINAMGCYRQAPGKERELVAAITSGGRTNYADSVKGRFTISRDNAKNTVYLQMNSLKPEDTAVYYCAAERTPSYRAYDYWGQGTQVTVSS | low polyreactivity |
| QVQLVESGGGLVQAGGSLRLSCAASGYTFSNNAMGWYRQAPGKERELVAAISRSTGSTYYADSVKGRFTISRDNAKNTVYLQMNSLKPEDTAVYYCAAEYYVDKSSWYDYWGQGTQVTVSS | high polyreactivity |
| QVQLVESGGGLVQAGGSLRLSCAASGRTFKFYAMGWYRQAPGKERELVATITSGGSTYYADSVKGRFTISRDNAKNTVYLQMNSLIPEDTAVSYCNAAKTYPDVYEYDYWGQGTQVTVSS | high polyreactivity |

| Sequence | polyreactivity (PSR sort gate) |
| --- | --- |
| QVQLVESGGGLVQAGASLRLSCAASGSIFYDNAMGWYRQAPGKERELVASIRWSGDSTYYADSVKGRITISRDNAKNTVYLQMNSLKPEDTAVYYCAADPVEPYFTAIAYDYWGQGTQVTVSS | low polyreactivity |
| QVQLQESGGGLVQAGGSLRLSCAASGIIFDNPNMGWYRQAPGKQRELVATINSGATTNYADSVKGRFTISRDNAKNTVYLLMNSLIPEDTAVYYCAVDLSPTYFYYWGQGTQVTVSS | high polyreactivity |
| QVQLVESVGGLVQAGGSLRLSCAASGSTFYENTMGWYRQAPGKERELVAAISRSGVSTYYADSVKGRFTISRDNAKNTVYLQMNSLKPQDTAVYYCAAIVYRRYDYWGQGTQVTVSS | high polyreactivity |
| QVQLVESGGGLVQAGGSLRLSCAASGSIFTLYAIGWSRQAPGKERELVAAISRRGGSTYYADSVKGRFTISRDNAKNTVYLQMNSLKPEDTAVYYCNAYRSNYLIGSSSYGLDYWGHGTQVTVSS | high polyreactivity |
| QVQLVESGGGLVQAGGSLRLSCAASGFIFFYYAMGWYRQAPGKERELVAAISASGGSTYYADSVKGRFTMSRDNAKNTVYLQMNSLKPEDTAVYYCATDPISRARLYGQRDYWGQGTQVTVSS | high polyreactivity |
| QVQLVESGGGLVQAGGSLSLSCAASGSIFHPYTMGWYRQAPGKERELVAGISQSSDSTYYADSVKGRFTISRDNAKNTVYLQMNSLKPEDTAVYYCNRDNDWPLSVVEVDYWGQGTQVTVSS | low polyreactivity |
| QLQLVESGGGLVQAGGSLRLSCAASGFTFRYYAMGWYRQAPGKERELVAAITRSGTTSYADSVKGRFTISRDNAKNTVYLQMNSLKPEDTAVYYCNTRVTGNRLGYYYWGQGTQVTVSS | high polyreactivity |
| QVQLVESGGGLVQAGGSLRLSCAASRSIFYDYVMGWYRQAPGKEREFVAAISWGGDSTYYADSVKGRFTISRDNAKNTVYLQMISLKPEDTAVYYCNADYPWSVVGYDYWGQGTQVTVSS | low polyreactivity |
| QVQLVESGGGLVQAGGSLRLSCAASGRTLCVNAMGWYRQAPGKERELVAAISTRGTTTNYADSVKGRFTISRDIAKNTVYLQMNSLKPEDSAVYYCATRTYRTYPRYDYWGQGTQVTVSS | low polyreactivity |
| QVQLVESGGGLVQAGGSLRLSCAASGFIFRYYAMGWYRPAPGKERELVAAISASGGSTYYADSVKGRCTISRDNAKNSDYLLMNSLKPEDTAVYYCATYYQKYRSEYWGQGTQVTVSS | high polyreactivity |
| QVQLVESGGGLVQAGGSLRLTCAASGSIFRYYAMGWYRQAPGKERELVAAISSNGGSTYYADSVKGRFTISRDNAKNTVYLQMNSLKPEDTAVYYCAALFRRAPGYYWGQGTQVTVSS | high polyreactivity |
| QVQLVESGGGLVQAGGSLRLSCAACGLTFGGYVMGWYRQAPGKVRELVAAISGSGGRTYYADSVKGRFTISRDNAKNTVYLQMNSLKPEDTAVYYCARPSRGPPRGYYWGKGTQVTVSS | high polyreactivity |
| QVQLVESGGGLVQAGGSLRLSCAASGFTFPPYAMGLYIQATGKETELVAAITVGGGRTYYADSVKARFTISRDNARNTVYLQMNWLKPVDTAVYYCDADSHASTYDYWGQGTQVTVSS | low polyreactivity |
| QVQLVESGGVLVQAGGSLRISSAASGRIFKVYAMGWYRQAPGKEREFVAVITGGGSTNYADSVKGRFTISRDNAKNTVYLQMNSLKPEDTGVYYCATEGYGHGGETDGGVYSDLGYWGQGTQVTVSS | low polyreactivity |
| QVQLVESGGGLVQAGGSLRLSCAASGITFYYYAMGWYRQAPGKLRELVARINSGGSTNYADSVKGRFTISRDNAKNTVYLQMNSLKPEDTAVYYCNAKFRFGTYKTPYDYWGQGTQVTVSS | low polyreactivity |
| QVQLVESGGVLVQAGGSLRLSCAASGRTFYSYAMGWYRQAPGNERELVAAITSSGGSTYYADSVKGRFTISRDNAKNTVYLQMNRLKPEDTAVYYCAAPRGRHFDYWGQGTQVTVSS | high polyreactivity |
| QVQLVKSGGGLVQAGGSLRLSCAASGGTFSFYTMGWYRQAPGKERELVAAIDSTGRTNYADSVKGRFTISRDNANHTVYLQMNSLKPEDTAVYYCAAGPPRADYDYWGQGTQVNVSS | low polyreactivity |
| QVQLVESGGGLVQAGGSLRLSCAASGRTFYSNAMGWYRQAAGKERELVAAISYNDGSTYYADSVKGRFTITRDNAKNTVYLQMNSLKPEDTAVYACNADVGAWAWYTRYDYWGQGTQVTVSS | low polyreactivity |
| QVQLVESGGGLVQAGGSLRLSCAASGLTLGSYAMGWYRLAPGKERELVAAISRRSGRTYYADSVKGRFTISRDNAKNTVYVQMNSLKPEDTAVYYCNRGYTAQVYTEFDYWGHGTQVTVSS | low polyreactivity |
| QVQLVESGGGLVQAGGSLRLSCAASGITFYAYVMGWYRQAPGKERELVAAISGGGSTYYADSVKGRFTISRDNAKNTVYLQMNSLKPEDTAVYYCNAELSFWDLGYDYWGQGTQVTVSS | low polyreactivity |
| QVQLVESGGGLVQAGGSLRLSCAASGIIIYKYAMGWDRQAPGTERELVAAITSGGGRTYYADSVKGRFTISRDNAKNTVYLQMNSLKPEDTAVYYCAATRPATYAAYDYWGQGTQVTVSS | high polyreactivity |
